# Reference: patent US20110039779A1, “IGF-1R BINDING PROTEINS AND ANTAGONISTS” (priority 2007, published 2011)
# B1: F113 (peptide)
# peptide: SFYSCLESLVNGGAERSDGQWEGCR
# modifications: not checked
# What was measured:
# [1] = molecular target: IGF-1R on SW480 cells, P08069; assay: cell-based or functional assay
# [2] = molecular target: IGF-1R on MCF-7 cells (MCF-7S8, MCF7) (human), P08069; assay: cell-based or functional assay
# Sequence of IGF-1R on MCF-7 cells (MCF-7S8, MCF7) (human), P08069 (P08069 31-1367): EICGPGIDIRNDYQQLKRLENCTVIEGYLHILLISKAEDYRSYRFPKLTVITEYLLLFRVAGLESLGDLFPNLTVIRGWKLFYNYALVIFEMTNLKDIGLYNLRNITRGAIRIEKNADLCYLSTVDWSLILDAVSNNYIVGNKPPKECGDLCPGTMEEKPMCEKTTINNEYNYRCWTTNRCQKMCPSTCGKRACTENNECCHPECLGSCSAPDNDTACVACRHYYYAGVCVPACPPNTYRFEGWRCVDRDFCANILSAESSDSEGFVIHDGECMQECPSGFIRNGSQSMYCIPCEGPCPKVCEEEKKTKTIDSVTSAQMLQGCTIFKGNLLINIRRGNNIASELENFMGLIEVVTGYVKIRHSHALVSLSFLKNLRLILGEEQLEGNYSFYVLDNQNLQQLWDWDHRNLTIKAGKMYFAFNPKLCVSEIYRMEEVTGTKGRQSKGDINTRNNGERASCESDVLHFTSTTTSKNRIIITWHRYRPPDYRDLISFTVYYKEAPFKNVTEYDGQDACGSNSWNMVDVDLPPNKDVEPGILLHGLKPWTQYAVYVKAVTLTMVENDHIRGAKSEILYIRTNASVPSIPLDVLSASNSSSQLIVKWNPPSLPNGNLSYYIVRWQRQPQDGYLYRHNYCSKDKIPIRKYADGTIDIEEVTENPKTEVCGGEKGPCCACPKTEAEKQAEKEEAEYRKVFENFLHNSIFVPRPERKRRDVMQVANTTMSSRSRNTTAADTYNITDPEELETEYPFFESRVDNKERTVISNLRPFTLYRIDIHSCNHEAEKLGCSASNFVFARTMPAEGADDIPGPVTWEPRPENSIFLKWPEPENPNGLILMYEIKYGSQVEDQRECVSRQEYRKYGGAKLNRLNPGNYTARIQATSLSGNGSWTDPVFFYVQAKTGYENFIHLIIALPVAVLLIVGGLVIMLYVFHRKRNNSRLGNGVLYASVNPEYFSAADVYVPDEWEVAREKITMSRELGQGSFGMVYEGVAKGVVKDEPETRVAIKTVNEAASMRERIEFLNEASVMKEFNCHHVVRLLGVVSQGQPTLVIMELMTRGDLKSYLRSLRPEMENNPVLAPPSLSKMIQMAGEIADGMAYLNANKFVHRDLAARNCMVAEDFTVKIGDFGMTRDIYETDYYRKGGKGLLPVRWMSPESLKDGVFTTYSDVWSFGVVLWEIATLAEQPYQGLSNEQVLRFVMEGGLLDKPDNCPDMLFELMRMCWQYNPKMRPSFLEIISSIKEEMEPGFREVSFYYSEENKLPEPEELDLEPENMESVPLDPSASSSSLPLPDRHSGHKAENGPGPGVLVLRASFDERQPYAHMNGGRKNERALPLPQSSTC
# Sequence of IGF-1R on SW480 cells, P08069 (P08069 31-1367 limits assumed): as the sequence (P08069 31-1367) above
binder,measurement,setting,value
B1,"IC50, IGF-1 (10 nM)-induced proliferation of SW480 cells, exp. 13262-015",[1],> 10 µM
same,"IC50, IGF-1 (10 nM)-induced proliferation of SW480 cells, exp. 13262-016",[1],> 10 µM
same,Cell,[2],1000 nM
